Reference: patent publication US20250026850A1 (TRISHULA THERAPEUTICS, published 2025)

B1: 27568 (antibody, V domains shown)
VH: QVQLVQSGAEVKKPGSSVKVPCKASGGTFSSYAISWVRQAPEQGLEWMGSIIPIFGTANYAQKFQGRVTITADESTSTAYMELSSLRSEDTAVYYCAGESGGYRDHKLDVWGQGTVVTVSS
VL: EIVLTQSPATLSLSPGERATLSCRASQSVSSYLAWYQQKPGQAPRLLIYDASNRATGIPARFSGSGSGTDFTLTISSLEPEDFAVYYCQQSVFWPITFGGGTKVEIKR
B2: 27535 (antibody, V domains shown)
VH: QVQLVQSGAEVKKPGSSVKVSCKASGGTFSSYAISWVRQAPGQGLEWMGGIIPIFGTANYAQKFQGRVTITADESTSTAYMELSSLRSEDTAVYYCARDTPRWRYHYFDYWGQGTLVTVSS
VL: EIVLTQSPATLSLSPGERATLSCRASQSVSSYLAWYQQKPGQAPRLLIYDASKRATGIPARFSGSGSGTDFTLTISSLEPEDFAVYYCQQVLNYPLTFGGGTKVEIKR
B3: 27549 (antibody, V domains shown)
VH: QVQLVESGGGVVQPGRSLRLSCAASGFTFSSYGMNWVRQAPGKGLEWVAVIWYDGSNKYYADSVKGRFTISRDNSKNTLYLQMNSLRAEDTAVYYCARDLGGYSYGEPYYYYYGMDVWGQGTTVTVSS
VL: EIVLTQSPGTLSLSPGERATLSCRASQSVSSDYLAWYQQKPGQAPRLLIYGASSRATGIPDRFSGSGSGTDFTLTISRLEPEDFAVYYCQQAHSSPYTFGGGTKVEIKR
B4: 27579 (antibody, V domains shown)
VH: QVQLVQSGAEVKEPGASVKVSCKAPGYTFTSYYMHWVRQAPGQGLEWMGVINPSGGSTSYAQKFQGRVTMTRDTSTSTVYMELSSLRSEDTAVYYCARGKREGGTEYLRHWGQGTLVTVSS
VL: EIVLTQSPGTLSLSPGERATLSCRASQSVSSSYLAWYQQKPGQAPRLLIYGASSRATGIPDRFSGSGSGTDFTLTISRLEPEDFAVYYCQQYHSYITFGGGTKVEIK
B5: 31414 (antibody, human IgG4 S228P, kappa, V domains shown)
VH: QVQLVQSGAEVKKPGASVKVSCKASGYTFKSYEMHWVRQAPGQGLEWMGRINPSVGSTWYAQKFQGRVTMTRDTSTSTVYMELSSLRSEDTAVYYCARGKREGGTEYLRNWGQGTLVTVSS
VL: EIVLTQSPGTLSLSPGERATLSCRASQSVSSSYLAWYQQKPGQAPRLLIYGASSRATGIPDRFSGSGSGTDFTLTISRLEPEDFAVYYCQQYHSYITFGGGTKVEIKR
B6: 31418 (antibody, V domains shown)
VH: QVQLVQSGAEVKKPGASVKVSCKASGYTFKSYEMHWVRQAPGQGLEWMGRINPSGGSTWYAQKFQGRVTMTRDTSTSTVYMELSSLRSEDTAVYYCARGKREGGTEYLRHWGQGTLVTVSS
VL: EIVLTQSPGTLSLSPGERATLSCRASQSVSSSYLAWYQQKPGQAPRLLIYGASSRATGIPDRFSGSGSGTDFTLTISRLEPEDFAVYYCQQYYFYITFGGGTKVEIKR
B7: 29872 (antibody, V domains shown)
VH: QVQLVQSGAEVKKPGASVKVSCKASGYTFKSYEMHWVRQAPGQGLEWMGRINPSVGSTWYAQKFQGRVTMTRDTSTSTVYMELSSLRSEDTAVYYCARGKREGGTEYLRHWGQGTLVTVSS
VL: EIVLTQSPGTLSLSPGERATLSCRASQSVSSSYLAWYQQKPGQAPRLLIYGASSRATGIPDRFSGSGSGTDFTLTISRLEPEDFAVYYCQQYHSYITFGGGTKVEIK
B8: 31415 (antibody, V domains shown)
VH: QVQLVQSGAEVKKPGASVKVSCKASGYTFTSYQMHWVRQAPGQGLEWMGRINPSGGSTWYAQKFQGRVTMTRDTSTSTVYMELSSLRSEDTAVYYCARGKREGGTEYLRSWGQGTLVTVSS
VL: EIVLTQSPGTLSLSPGERATLSCRASQSVSSSYLAWYQQKPGQAPRLLIYGASSRATGIPDRFSGSGSGTDFTLTISRLEPEDFAVYYCQQYHSYITFGGGTKVEIKR
B9: 31429 (antibody, V domains shown)
VH: QVQLVQSGAEVKKPGASVKVSCKASGYTFVSYFMHWVRQAPGQGLEWMGSINPRGGSTSYAQKFQGRVTMTRDTSTSTVYMELSSLRSEDTAVYYCARGKREGGTEYLRHWGQGTLVTVSS
VL: EIVLTQSPGTLSLSPGERATLSCRASQYVSSSYLAWYQQKPGQAPRLLIYYASNRATGIPDRFSGSGSGTDFTLTISRLEPEDFAVYYCQQYHSGITFGGGTKVEIK
B10: 31891 (antibody, V domains shown)
VH: QVQLVQSGAEVKKPGASVKVSCKASGYIFKSYEMHWVRQAPGQGLEWMGRINPSVGSTWYAQKFQGRVTMTRDTSTSTVYMELSSLRSEDTAVYYCARGKREGGTEYLRVWGQGTLVTVSS
VL: EIVLTQSPGTLSLSPGERATLSCRASQSVSSSYLAWYQQKPGQAPRLLIYYASSRAYGIPDRFSGSGSGTDFTLTISRLEPEDFAVYYCQQYHNAITFGGGTKVEIKR
B11: 31430 (antibody, V domains shown)
VH: QVQLVQSGAEVKKPGASVKVSCKASGYTFKSYEMHWVRQAPGQGLEWMGRINPSGGSTWYAQKFQGRVTMTRDTSTSTVYMELSSLRSEDTAVYYCARGKREGGTEYLRHWGQGTLVTVSS
VL: EIVLTQSPGTLSLSPGERATLSCEASQSVSYSYLAWYQQKPGQAPRLLIYGASSRANGIPDRFSGSGSGTDFTLTISRLEPEDFAVYYCQQYHSALTFGGGTKVEIKR
B12: 31431 (antibody, V domains shown)
VH: QVQLVQSGAEVKKPGASVKVSCKASGYTFTSYQMHWVRQAPGQGLEWMGRINPSGGSTWYAQKFQGRVTMTRDTSTSTVYMELSSLRSEDTAVYYCARGKREGGTEYLRHWGQGTLVTVSS
VL: EIVLTQSPGTLSLSPGERATLSCRASQSVASSYLAWYQQKPGQAPRLLIYGASNRHTGIPDRFSGSGSGTDFTLTISRLEPEDFAVYYCQQYHGGITFGGGTKVEIK
B13: 27536 (antibody, V domains shown)
VH: QVQLVQSGAEVKKPGSSVKVSCKASGGTFSNYAISWVRQAPGQGLEWMGGIIPIFGTANYAQKFQGRVTITADESTSTAYMELSSLRSEDTAVYYCARDTLYSSGAYYGYNVWGQGTMVTVSS
VL: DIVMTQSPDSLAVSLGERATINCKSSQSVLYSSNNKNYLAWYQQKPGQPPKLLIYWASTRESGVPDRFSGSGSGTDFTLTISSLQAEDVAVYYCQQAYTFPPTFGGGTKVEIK

Legend:
[1] = molecular target: T1, cynomolgus macaque (Macaca fascicularis) CD39 on cells (cynomolgus macaque (Macaca fascicularis), UniProt P49961 7-510 (human entry)); assay: flow cytometry, 100 nM IgG, cCD39-CHO cells; MFI ratio to parental CHO
T1 construct: CHO cells engineered to express cyno CD39, or primary cyno B cells and monocytes; also called cyno CD39; cCD39
T1 chain: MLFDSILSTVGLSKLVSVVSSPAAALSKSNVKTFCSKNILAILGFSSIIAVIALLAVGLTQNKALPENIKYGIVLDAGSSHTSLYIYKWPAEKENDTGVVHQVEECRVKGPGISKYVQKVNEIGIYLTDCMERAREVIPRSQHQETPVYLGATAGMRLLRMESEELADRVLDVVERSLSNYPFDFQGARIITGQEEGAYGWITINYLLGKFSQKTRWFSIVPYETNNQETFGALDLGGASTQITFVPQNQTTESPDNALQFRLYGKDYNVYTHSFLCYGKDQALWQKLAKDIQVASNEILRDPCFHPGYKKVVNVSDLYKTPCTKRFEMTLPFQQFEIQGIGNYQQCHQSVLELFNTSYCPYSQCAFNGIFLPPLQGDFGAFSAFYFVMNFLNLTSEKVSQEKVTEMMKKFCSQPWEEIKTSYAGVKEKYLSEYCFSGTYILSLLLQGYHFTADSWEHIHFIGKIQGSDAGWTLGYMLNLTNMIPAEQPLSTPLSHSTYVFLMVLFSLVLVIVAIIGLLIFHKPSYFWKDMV
Description: (§1) 100 nanomolar IgGs (each antibody is indicated as a unique clone number in the FIG.) were incubated at […] 30 minutes on ice in phosphate buffered saline (PBS) with parental CHO cells or CHO cells engineered to express either human or cynomolgus macaque (Macaca fascicularis) CD39 (CHO CD39 cells). Cells were then washed with ice cold PBS and incubated with a fluorescently labeled goat-anti-human IgG for 20 minutes on ice. Cells were washed and resuspended in ice cold PBS prior to analysis by flow cytrometry.

[2] = molecular target: T2, rhCD39-ECD-His (R&D Systems) (human, UniProt P49961 38-478); assay: BLI (Octet), IgG on anti-human Fc sensor, rhCD39-ECD-His 10-300 nM, 1:1 fit
T2 construct: Bought protein; that entry runs on through the C-terminal transmembrane and cytoplasmic residues; also called recombinant human CD39 extracellular domain; soluble recombinant human CD39 (ENTDP1) ECD; not shown: His tag
T2 sequence: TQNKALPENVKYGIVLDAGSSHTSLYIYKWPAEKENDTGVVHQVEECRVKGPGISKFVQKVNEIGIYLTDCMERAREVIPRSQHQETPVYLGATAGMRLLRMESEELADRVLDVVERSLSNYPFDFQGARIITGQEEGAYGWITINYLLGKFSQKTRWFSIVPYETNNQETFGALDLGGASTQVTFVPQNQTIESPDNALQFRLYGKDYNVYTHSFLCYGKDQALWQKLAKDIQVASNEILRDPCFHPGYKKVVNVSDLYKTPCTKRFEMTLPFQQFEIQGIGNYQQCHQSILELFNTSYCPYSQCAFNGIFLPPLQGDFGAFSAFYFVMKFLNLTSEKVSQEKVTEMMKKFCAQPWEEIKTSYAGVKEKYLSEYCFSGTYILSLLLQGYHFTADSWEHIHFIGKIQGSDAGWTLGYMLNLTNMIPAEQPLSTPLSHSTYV
Description: The kinetic data was globally fit with a simple 1:1 Langmuir binding model to yield on-rate (kon) and off-rate (koff) values. The equilibrium dissociation constants (KD) were calculated from the kon and koff values.
Binding kinetics were measured using the Octet Red96 system (ForteBio) at 25° C. in running buffer (1× Pall ForteBio Kinetics Buffer diluted into PBS or Tris pH 7.4). […] After a short baseline step in running buffer, the sensors were exposed to varying concentrations (10-300 nM) of rhCD39-ECD-His (R&D Systems) for the association step. Dissociation of the complex was monitored upon exposure of the sensors to running buffer once again. Data was processed using ForteBio Octet software with baseline subtraction, global fit and 1:1 binding model to obtain association and dissociation rates. KD was calculated from the ratio of kd to kₐ.

human CD39 on cells = molecular target: T3, human CD39 on cells (human, UniProt P49961 1-510); assay: flow cytometry, 100 nM IgG, hCD39-CHO cells; MFI ratio to parental CHO
T3 construct: One molecule for all cells that carry human CD39; the cell is named under assay; also called hCD39; cellular CD39
T3 sequence: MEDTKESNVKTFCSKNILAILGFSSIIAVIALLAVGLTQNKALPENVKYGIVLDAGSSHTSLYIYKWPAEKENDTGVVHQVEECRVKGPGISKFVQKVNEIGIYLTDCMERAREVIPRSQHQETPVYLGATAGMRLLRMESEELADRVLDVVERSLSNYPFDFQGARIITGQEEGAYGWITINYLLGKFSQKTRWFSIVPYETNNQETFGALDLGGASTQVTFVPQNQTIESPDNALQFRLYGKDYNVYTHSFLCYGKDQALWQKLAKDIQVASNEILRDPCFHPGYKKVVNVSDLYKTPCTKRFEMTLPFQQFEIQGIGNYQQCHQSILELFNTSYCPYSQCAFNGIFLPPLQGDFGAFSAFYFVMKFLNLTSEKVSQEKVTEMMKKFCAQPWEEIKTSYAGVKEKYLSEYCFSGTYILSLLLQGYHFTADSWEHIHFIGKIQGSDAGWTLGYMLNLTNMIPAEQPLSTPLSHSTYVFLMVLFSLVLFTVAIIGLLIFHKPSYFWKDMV
Description: as §1

Row | Binder | Cell Binding (FOB) [1] [FOB] | Kd [2] [nM] | koff [2] [s⁻¹] | kon [2] [M⁻¹ s⁻¹] | Cell Binding (FOB) (human CD39 on cells)
1 | B1 | 260 | 173 | 0.047 | 272000 | 267
2 | B2 | 738 | – | – | – | 301
3 | B3 | 566 | – | – | – | 822
4 | B4 | 2670 | – | – | – | 1950
5 | B5 | 3570 | – | – | – | 1240
6 | B6 | 3180 | – | – | – | 1080
7 | B7 | 4190 | – | – | – | 1450
8 | B8 | 3360 | – | – | – | 1170
9 | B9 | 3800 | – | – | – | 1290
10 | B10 | 4650 | – | – | – | 1030
11 | B11 | 3570 | – | – | – | 1220
12 | B12 | 3530 | – | – | – | 1240
13 | B13 | 113 | 114 | 0.00751 | 65900 | 89
